Article PMC8726015

Assays:
Experiment in all cases: purified protein
Conditions in all cases: ATP; Mg2+
[1] = substrate: CC(C)(CO)[C@@H](O)C(=O)NCCCC(=O)O; format: biochemical, Drosophila melanogaster
[2] = substrate: CC(C)(CO)[C@@H](O)C(=O)NCCC(=O)NCCS; format: biochemical, Drosophila melanogaster
[3] = substrate: CC(C)(CO)[C@@H](O)C(=O)NCCCC(=O)O; format: biochemical, Homo sapiens
[4] = substrate: CC(C)(CO)[C@@H](O)C(=O)NCCC(=O)NCCS; format: biochemical, Homo sapiens

B1: fruit fly pantothenate kinase dPANK/FblD (Fumble D) (Drosophila melanogaster) (protein)
chain: MPWFGMDIGGTLTKLVYFEPKDITPDEQDREAGILRNIRRYLTKNSAYGKTGHRDTHLQMDNVEIRKRRGSLHFIRFQTTDMGNFLSLAKQKGMAELVTTVCATGGGAFKFEQDFRDQVNMKLAKFDELDTLIKGILFADLHNRTECYYYENARDILKSEKQQFNFSQPFPFILVNVGSGVSILAVYGPDNYKRISGTSLGGGTFLGLCCLLTGCTSFEEAIQLATKGDNRKVDKLVKDIYGGDYNRFGLPGDLVASSFGQMHLNDKRVSVSREDLANATLVTITNNIGSIARMCALNEKIDRVVFVGNFLRVNPISMKLLAYAMEFWSNGTMKGLFLEHEGYFGALGCLLQFNGELAAALNDGVEHSIHTESDSASEAAQTSSTADEPPEKAPTSKHSTR
For B1, the K0.5 [1] was 82.2 ± 12.4 µM, the kcat [1] was 2.72 ± 0.5 s⁻¹ and the kcat/Km [1] was 35600 ± 8400 M⁻¹ s⁻¹. For the same protein, the K0.5 [2] was 28.9 ± 13.0 µM.

B2: human pantothenate kinase hPANK3 (Homo sapiens) (protein)
chain: PWFGMDIGGTLVKLSYFEPIDITAEEEQEEVESLKSIRKYLTSNVAYGSTGIRDVHLELKDLTLFGRRGNLHFIRFPTQDLPTFIQMGRDKNFSTLQTVLCATGGGAYKFEKDFRTIGNLHLHKLDELDCLVKGLLYIDSVSFNGQAECYYFANASEPERCQKMPFNLDDPYPLLVVNIGSGVSILAVHSKDNYKRVTGTSLGGGTFLGLCSLLTGCESFEEALEMASKGDSTQADKLVRDIYGGDYERFGLPGWAVASSFGNMIYKEKRESVSKEDLARATLVTITNNIGSVARMCAVNEKINRVVFVGNFLRVNTLSMKLLAYALDYWSKGQLKALFLEHEGYFGAVGALLGLPNFS
For B2, the K0.5 [3] was 36.2 ± 2.1 µM, the kcat [3] was 0.67 ± 0.02 s⁻¹ and the kcat/Km [3] was 19500 ± 1600 M⁻¹ s⁻¹. It also gave a K0.5 [4] of 8.05 ± 1.87 µM, a kcat [4] of 0.41 ± 0.13 s⁻¹ and a kcat/Km [4] of 57600 ± 24600 M⁻¹ s⁻¹.
